Data on 15 molecules can be found in patent US20250289873A1 (BROADWING BIO, published 2025).

In assay [1] the target is T1, human CFHL3-His (ATX-P-58) (human, UniProt Q02985 19-330).
T1 construct: also called human CFHR3 protein; CFHR3; not shown: C-terminal His tag (and linker)
T1 sequence (looked up): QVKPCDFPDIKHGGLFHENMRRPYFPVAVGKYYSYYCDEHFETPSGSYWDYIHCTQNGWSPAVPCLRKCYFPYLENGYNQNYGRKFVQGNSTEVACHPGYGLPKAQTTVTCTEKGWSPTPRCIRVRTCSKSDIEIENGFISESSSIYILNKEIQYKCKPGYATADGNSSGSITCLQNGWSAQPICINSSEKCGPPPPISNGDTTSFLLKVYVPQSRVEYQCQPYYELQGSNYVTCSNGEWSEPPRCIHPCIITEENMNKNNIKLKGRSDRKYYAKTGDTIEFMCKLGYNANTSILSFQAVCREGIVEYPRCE
Description: Carterra LSA biosensor, mAb printed on chip, cutoff set by isotype control. As to the method: (§1) Experiments were also conducted to determine the reactivity of the CFHR4 antibodies with the human CFHR3 protein (FIG. 9). The binding experiments were performed on Carterra LSA with a running buffer of PBS pH 7.40, 1% BSA, 0.05% Tween20. Antibodies were covalently printed on an HC30M chip. Chip was activated with 33 mM s-NHS and 133 mM EDC in 100 mM MES pH 5.5 for 7 minutes. Antibodies at 10 mg/ml in acetic acid buffer pH 4.5 were used for printing for 10 min. The printed chip was then quenched with 1 M ethanolamine pH 8.5 for 7 min. For the reactivity assay, ATX-P-58, human CFHL3-His, at 550 nM was tested with 5 min association followed by 15 min dissociation. Results were processed and analyzed in Carterra LSA Kinetics Software. The data was referenced with the interstitial reference spots and double-referenced to a buffer cycle, and then the responses (nm) after association were reported. Isotype control was used to determine the cutoff response for positive binding.
as §1, with “CFHL-1 (Y402H)” for “CFHR3”, “10).” for “9).”, “ATX-P-421,” for “ATX-P-58,”, “CFHL1-Y402H-His,” for “CFHL3-His,”, “380” for “550”

The target in assay [2] is T2, Human CFHL1-Y402H-His (ATX-P-421) (human).
T2 construct: also called human CFHL-1 (Y402H) protein
T2 chain: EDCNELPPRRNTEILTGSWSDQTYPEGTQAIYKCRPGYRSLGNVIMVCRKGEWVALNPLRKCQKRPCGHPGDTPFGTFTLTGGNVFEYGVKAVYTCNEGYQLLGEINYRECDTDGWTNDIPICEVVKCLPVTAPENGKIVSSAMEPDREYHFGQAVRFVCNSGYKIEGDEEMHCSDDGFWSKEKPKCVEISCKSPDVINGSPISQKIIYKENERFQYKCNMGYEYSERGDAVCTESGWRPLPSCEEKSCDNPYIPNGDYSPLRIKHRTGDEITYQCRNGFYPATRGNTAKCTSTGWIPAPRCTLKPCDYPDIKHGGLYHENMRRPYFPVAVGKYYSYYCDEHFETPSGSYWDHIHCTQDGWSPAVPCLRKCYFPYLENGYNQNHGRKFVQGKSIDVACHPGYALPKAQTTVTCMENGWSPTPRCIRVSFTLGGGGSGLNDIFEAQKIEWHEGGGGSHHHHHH
Nature of the assay: Carterra LSA biosensor, mAb printed on chip, human CFHL1-Y402H-His at 380 nM. How it is done:
as §1, with “CFHL-1 (Y402H)” for “CFHR3”, “10).” for “9).”, “ATX-P-421,” for “ATX-P-58,”, “CFHL1-Y402H-His,” for “CFHL3-His,”, “380” for “550”

For assay [3], the target named is T1, human CFHL3-His (ATX-P-58). Description: Carterra LSA biosensor, mAb printed on chip, human CFHL3-His at 550 nM. How it is done: as §1
Assay [4] has as its target T2, Human CFHL1-Y402H-His (ATX-P-421). Nature of the assay: Carterra LSA biosensor, mAb printed on chip, cutoff set by isotype control. As to the method:
as §1
as §1, with “CFHL-1 (Y402H)” for “CFHR3”, “10).” for “9).”, “ATX-P-421,” for “ATX-P-58,”, “CFHL1-Y402H-His,” for “CFHL3-His,”, “380” for “550”

B1: ATX-P-570 (antibody, human IgG1, kappa, N297A, V domains shown)
VH: QVQLQESGPGLVKPSETMSLTCTVSGGSFTGYYWSWIRQPPGKGLEWIGYVHYSGGTKSNPSLKSRVTISVDTSKNQFSLKLSSVTAADTAVYYCARERYEWNSYFDYWGQGTLVTVSS
VL: not shown
Turning to B1, the binding result in assay [1] is listed as “no binding (tested: 550 nM)”; in assay [2], “binds”.

B2: ATX-P-608 (antibody, human IgG1, kappa, N297A, V domains shown)
VH: QVQLQESGPGLVKPSGTLSLTCAVSGGSISSSNWWSWVRQSPGKGLEWIGEIYHTGSTNKKPSLKSRVIISVDKSKNQFSLKLISVNAADTAIYYCARDREGGTTEAFDIWGQGTMVTVSS
VL: EIVMTQSPATLSVSPGERATLSCRASQSVSSNLAWYQQKPGQAPRLLIYGASTRATGIPVRFSGSGSGTQFTLTISSLQSEDFAVYYCQQYDNWRTFGQGTRLEIKR
For B2, the binding result in assay [3] was “binds”; in assay [4], “no binding (tested: 380 nM)”.

B3: ATX-P-609 (antibody, human IgG1, kappa, N297A, V domains shown)
VH: QVQLQESGPGLVKPSGTLSLTCAVSGGSISSSNWWSWVRQPPGKGLEWIGEIYHSGSTNYNPSLKSRVTISVDKSKNQFSLKLRSVTAADTAVYYCARDQLSSGPTDAFDIWGQGTMVTVSS
VL: EIVMTQSPATLSVSPGERATLSCRASQSVSSNLAWYQQKPGQAPRLLIYGASTRATGIPVRFSGSGSGTQFTLTISSLQSEDFAVYYCQQYDNWRTFGQGTKLEIKR
On to B3, for which the binding result in assay [3] was “binds”; in assay [4], “no binding (tested: 380 nM)”.

B4: ATX-P-571 (antibody, human IgG1, kappa, N297A, V domains shown)
VH: QVQLQESGPGLVKPSGTLSLTCAVSGGSISSRNWWSWVRQPPGKGLEWIGEIYHGGTTNYNPSLKSRVTISVDKSKNQFSLKLSSVTAADTAVYYCARGGLRLGELSPNAFDIWGQGTMVTVSS
VL: DIQMTQSPSSLSASVGDRVTITCRASQSISSYLNWYQQKPGKAPKVLIYAASSLQSGIPSRFSGSGSGTDFTLTISSLQPEDFATYYCQETYSVPLTFGGGTKVEIKR
As to B4, the binding result in assay [1] is “no binding (tested: 550 nM)”; in assay [2], “binds”.

B5: ATX-P-594 (antibody, human IgG1, kappa, N297A, V domains shown)
VH: QVQLQQSGPGLVKPSQTLSLTCAISGDSVSSNSASWNWIRQSPSRGLEWLGTTYYRSKWFNVYAVSVKSRITINPDTSKNQFSLHLNSVTPEDTAIYFCTRDRGDLLHWYFDLWGRGTLVTVSS
VL: EIVLTQSPGTLSLSPGERATLSCRASQSVSSSYLAWYQQKPGQSPRLLIYGASSRATGIPDRFSGSGSGTDFTLTISRLEPEDFAVYYCQQYGRSVTFGGGTKLEIKR
In the case of B5, the binding result in assay [3] and in assay [2] was “binds” throughout.

B6: ATX-P-592 (antibody, human IgG1, kappa, N297A, V domains shown)
VH: QVQLQQSGPGLVKPSQTLSLTCAISGDSVSSNSAAWNWIRQSPSRGLEWLGRTYYRSKWYSDYPLSVKSRITINPDTSKNQFSLQLNSVTPEDTAVYYCARDSGIVETTPFDYWGQGTLVTVSS
VL: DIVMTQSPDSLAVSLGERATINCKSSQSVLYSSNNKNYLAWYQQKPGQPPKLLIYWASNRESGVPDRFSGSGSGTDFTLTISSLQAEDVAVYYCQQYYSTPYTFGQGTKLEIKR
As to B6, the binding result in assay [3] is “binds”; in assay [4], “no binding (tested: 380 nM)”.

B7: ATX-P-572 (antibody, human IgG1, kappa, N297A, V domains shown)
VH: QVQLQQSGPGLVKPSQTLSLTCAISGDSVSSNSAAWNWIRQSPSRGLEWLGMTYYRSKWYSVFAVSVKSRITINTDTSKNQFSLQLNSVTPEDTAVYYCAREGGIVGATPFDYWGQGTLVTVSS
VL: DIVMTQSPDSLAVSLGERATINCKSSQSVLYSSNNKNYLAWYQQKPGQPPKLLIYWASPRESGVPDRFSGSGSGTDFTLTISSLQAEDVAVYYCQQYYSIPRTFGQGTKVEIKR
Take B7: the binding result in assay [3] is “binds”; in assay [4], “no binding (tested: 380 nM)”.

B8: ATX-P-595 (antibody, human IgG1, kappa, N297A, V domains shown)
VH: QVQLQQSGPGLVKPSQTLSLTCAISGDSVSSNSAAWNWIRQSPSRGLEWLGRTYYRSKWFNDYALSVKSRITINPDTSKNQFSLHLNSVTPEDTAVYYCAREPGIVAPGPFDYWGQGTLVTVSS
VL: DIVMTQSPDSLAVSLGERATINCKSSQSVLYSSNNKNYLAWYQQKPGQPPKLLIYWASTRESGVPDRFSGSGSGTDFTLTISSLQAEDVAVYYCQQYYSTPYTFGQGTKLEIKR
For B8, the binding result in assay [3] and in assay [2] was “binds” throughout.

B9: ATX-P-588 (antibody, human IgG1, kappa, N297A, V domains shown)
VH: EVQLVESGGGLVQPGRSLRLSCAASGFTFEDYAMHWVRQAPGKGLEWVSGISWNSGSIGYADSVKGRFTISRDNAKKSLYLQMNSLRAEDTALYYCTKDRDDGYNYAGVFDYWGQGTLVTVSS
VL: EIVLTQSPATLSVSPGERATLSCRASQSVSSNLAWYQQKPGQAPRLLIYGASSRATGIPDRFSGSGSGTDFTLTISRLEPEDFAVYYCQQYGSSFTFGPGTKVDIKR
For the molecule B9, the binding result in assay [3] and in assay [2] was “binds” throughout.

B10: ATX-P-600 (antibody, human IgG1, kappa, N297A, V domains shown)
VH: EVQLVESGGGLVQPGRSLRLSCAASGFTFDDYAMHWVRQVPGRGLEWVSGISWSGGSIGYADSVKGRFTISRDNSKNSLYLQMNSLRAEDTALYYCTKDREDGYNYGGVFDYWGQGTLVTVSS
VL: EIVLTQSPGTLSLSPGERATLSCRASQNVRGSYLAWYQQKPGQAPRLLIYGASNRATDIPDRFSGSGSGTDFTLTISGLEPEDFVVYYCQQYGSSYTFGQGTKVEIKR
Turning to B10, the binding result in assay [3] and in assay [2] was “binds” throughout.

B11: ATX-P-603 (antibody, human IgG1, kappa, N297A, V domains shown)
VH: QVQLQESGPGLVKPSGTLSLTCAVSGGSISGSHWWSWFRQPPGKGLEWIGEIYHTGSTNKNPSLKSRVTISLDKSKNQFSLRLRSVTDADTAVYYCARDQYTGSPRDAFDIWGQGTMVTVSS
VL: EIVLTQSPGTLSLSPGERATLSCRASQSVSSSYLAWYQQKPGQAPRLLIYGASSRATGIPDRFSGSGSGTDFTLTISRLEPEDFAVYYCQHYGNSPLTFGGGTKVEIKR
For B11, the binding result in assay [4] is “no binding (tested: 380 nM)”.

B12: ATX-P-569 (antibody, human IgG1, kappa, N297A, V domains shown)
VH: EVQLVESGGGLAQFGRSLRLSCAASGFTFDDYAMHWLRQAPGMGLEWVSGISWNSGSIGYADSVKGRFTIARDNAKNSVHLQMNSLRAEDTALYYCAKDIGNGYTKGDVFDIWGQGTMVTVSS
VL: DIQMTQSPSTLSASVGDSVTITCRASQNIITWLAWYQQKPGKAPNLLIYKASSLESGVPSRFSGSGSGTEFTLTISSLQPDDFATYYCQQYSSYSYTFGQGTKLEIKR
Take B12: the values for the binding result in assay [3] and in assay [4] were “binds” and “no binding (tested: 380 nM)”, respectively.

B13: ATX-P-596 (antibody, human IgG1, kappa, N297A, V domains shown)
VH: EVQLVESGGGLVQPGRSLRLSCAASGFSFDDYAMHWVRQVPGKGLEWVSGISWTGGSVGYADPVKGRFTISRDNAKNSLYLQMNSLRPEDTALYYCAKDMGDGYSRNWPFDYWGQGTLVTVSS
VL: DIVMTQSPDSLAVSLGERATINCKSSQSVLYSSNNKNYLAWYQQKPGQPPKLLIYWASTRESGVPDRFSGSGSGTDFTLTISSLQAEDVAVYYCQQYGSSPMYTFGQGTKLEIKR
For B13, the binding result in assay [3] and in assay [2] was “binds” in each case.

B14: ATX-P-561 (antibody, human IgG1, kappa, N297A, V domains shown)
VH: QVQLQQSGPGLVKPSQTLSLTCAISGDSVSSNSAAWNWIRQSPSRGLEWLGRTYYRSKWYNGYAVSMKSRITINPDTSKNQFSLQLNSVTPEDTAMYYCAREGVGATTGFDYWGQGTLVTVSS
VL: DIQMTQSPSSLSASVGDRVTITCRASQGISSWLTWYQQKPGKAPKLLIYAASSLQGGVPSRFSGSGSGTDFTLTISSLQPEDFATYYCQQANSFPPTFGQGTKVEIKR
As to B14, the binding result in assay [3] and in assay [2] was “binds” in each case.

B15: ATX-P-610 (antibody, human IgG1, kappa, N297A, V domains shown)
VH: QVQLQQSGPGLVKSSQTLSITCAISGDSVSSNSAAWNWIRQSPSRGLEWLGRTYYRSKWYNDYALSVKSRIIIKSDTSKNQFSLQLNSVTPEDTAVYYCAREPGIAAPGPFDYWGQGSLVTVSS
VL: DIQMTQSPSSVSASVGDRVTITCRASQGISSWLAWYQQKPGKAPKLLIYAASSLQSGVPSRFSGSGSGTDFTLTISSLQPEDFATYYCQQNYRTPITFGQGTRLEIKR
For B15, the binding result is recorded as “binds” in assay [3] and “no binding (tested: 380 nM)” in assay [4].
